# Reference: PMC8187382, “The archaeal protein SepF is essential for cell division in Haloferax volcanii” (Nature Communications, 2021)
# B1: SepF-His (H. volcanii SepF expressed in E. coli) (natural protein, Haloferax volcanii, UniProt D4H018 1-118, looked up)
# chain: MGIMSKILGGGGSRTTEDYVELDLDDFDTARGDAGLSVHIAEIGGQQDVIAIKDAVYDGNLVIADITRHTTSDSTMEHIIDDLRQVAREVDGDIVQKGDDQIVITPTGISISRQKLNG
# notes: SepF of Haloferax volcanii, encoded by hvo_0392, 118 amino acids, 12.6 kDa; sepF amplified from genomic DNA of strain H26 and cloned by FX-cloning; FX-cloning may leave extra residues at the ends; also called purified SepF; Hvo_0392
# Target: the molecule itself
# Experiment: SEC; 500 µl freshly purified SepF-His on Superdex 200 10/300 GL in Buffer A (1.5 M KCl, 100 mM NaCl, 50 mM HEPES, 1 mM DTT, pH 7.5), 0.5 ml/min; gel filtration standard run under the same conditions; no protein eluted at volumes of higher oligomers
protein,measurement,value
B1,stoichiometry N,2
